Laboratory results taken from PMC3150472 (Structure (London, England : 1993), 2011).
*1 amine or outer side, *2 acyl side, *3 side chain or, on linkers, in order; H or OH if unused. Where no end group is shown, it is not given here. [ ]: non-standard residue; d: D form. CEL = Nε-carboxy-ethyl-lysine, CC(NCCCC[C@H](N[*:1])C(=O)[*:2])C(=O)[*:3]; CML = Nε-carboxy-methyl-lysine, O=C([C@H](CCCCNCC(=O)[*:3])N[*:1])[*:2]

Legend:
V domain of RAGE = V domain of RAGE (Homo sapiens, UniProt Q15109); assay: Tryptophan fluorescence titration, wild type V domain; settings: single site binding isotherm, 25 °C, pH 6.5, 100 mM NaCl
RAGE = settings: free amino acid, not embedded in a peptide; ref Xie et al., 2008; cited from earlier work
NMR gradient diffusion = biological target: the molecule itself; assay: NMR gradient diffusion
K52A V domain of RAGE = K52A V domain of RAGE (human, UniProt Q15109 24-125, K52A); assay: other fluorescence titration
[1] = biological target: K52A, R98A V domain of RAGE (human, UniProt Q15109 24-125, K52A | R98A); assay: other fluorescence titration
R98A V domain of RAGE = R98A V domain of RAGE (human, UniProt Q15109 24-125, R98A); assay: other fluorescence titration
[2] = biological target: V domain of RAGE (wild type) (human, UniProt Q15109 24-125); assay: other fluorescence titration

Chain of K52A V domain of RAGE (Q15109 24-125 K52A): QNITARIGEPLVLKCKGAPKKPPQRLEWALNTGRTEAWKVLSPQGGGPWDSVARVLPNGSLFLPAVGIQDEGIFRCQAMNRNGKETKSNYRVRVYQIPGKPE
Chain of R98A V domain of RAGE (Q15109 24-125 R98A): as the sequence (Q15109 24-125 K52A) above, with A29K, R75A counted along it
Chain of K52A, R98A V domain of RAGE (Q15109 24-125 K52A/R98A): as the sequence (Q15109 24-125 K52A) above, with R75A counted along it

CC(NCCCC[C@H](NC(=O)[C@H](Cc1ccccc1)NC(=O)[C@H](CCC(=O)O)NC(=O)[C@@H](N)CC(=O)O)C(=O)N[C@@H](C)C(=O)N[C@@H](CC(=O)O)C(=O)N[C@@H](CCC(=O)O)C(=O)O)C(=O)O (stereo partly shown) [DEF(CEL)ADE]
Kd (V domain of RAGE): 104 ± 5 µM

CC(C)C[C@H](NC(=O)[C@H](CC(=O)O)NC(=O)[C@H](CCCCNC(C)C(=O)O)NC(=O)[C@@H](N)Cc1ccccc1)C(=O)NCC(=O)N[C@@H](CCC(=O)O)C(=O)N[C@@H](CCC(=O)O)C(=O)O (stereo partly shown) [F(CEL)DLGEE]
Kd (V domain of RAGE): 93 ± 6 µM

CC(NCCCC[C@H](N)C(=O)O)C(=O)O (stereo partly shown) [CEL, Nε-carboxy-ethyl-lysine]
binding to RAGE (RAGE): do not bind

N[C@@H](CCCCNCC(=O)O)C(=O)O [CML, Nε-carboxy-methyl-lysine]
binding to RAGE (RAGE): do not bind

B1: VC1 domain of RAGE (wild type) (domain or fragment, human, UniProt Q15109 23-243, looked up)
chain: AQNITARIGEPLVLKCKGAPKKPPQRLEWKLNTGRTEAWKVLSPQGGGPWDSVARVLPNGSLFLPAVGIQDEGIFRCQAMNRNGKETKSNYRVRVYQIPGKPEIVDSASELTAGVPNKVGTCVSEGSYPAGTLSWHLDGKPLVPNEKGVSVKEQTRRHPETGLFTLQSELMVTPARGGDPRPTFSCSFSPGLPRHRALRTAPIQPRVWEPVPLEEVQLVVE
binding result (NMR gradient diffusion): binds

DEF[CEL]ADE [DEF(CEL)ADE]
Kd (K52A V domain of RAGE): 560 ± 32 µM
Kd [1]: 912 ± 42 µM
Kd (R98A V domain of RAGE): 685 ± 26 µM

F[CML]DLGEE [F(CML)DLGEE]
Kd [2]: 87 ± 5 µM

DEF[CML]ADE [DEF(CML)ADE]
Kd [2]: 97 ± 3 µM
